Source: article PMC179894

Key:
Test in all cases: enzyme inhibition kinetics
[1] = target: single-chain tissue-type plasminogen activator
[2] = target: thrombin (UniProt P00734)
[3] = target: plasmin (UniProt P00747)

Chain of wild type plasminogen activator inhibitor-1 (recombinant, baculovirus system) (P05121 24-402): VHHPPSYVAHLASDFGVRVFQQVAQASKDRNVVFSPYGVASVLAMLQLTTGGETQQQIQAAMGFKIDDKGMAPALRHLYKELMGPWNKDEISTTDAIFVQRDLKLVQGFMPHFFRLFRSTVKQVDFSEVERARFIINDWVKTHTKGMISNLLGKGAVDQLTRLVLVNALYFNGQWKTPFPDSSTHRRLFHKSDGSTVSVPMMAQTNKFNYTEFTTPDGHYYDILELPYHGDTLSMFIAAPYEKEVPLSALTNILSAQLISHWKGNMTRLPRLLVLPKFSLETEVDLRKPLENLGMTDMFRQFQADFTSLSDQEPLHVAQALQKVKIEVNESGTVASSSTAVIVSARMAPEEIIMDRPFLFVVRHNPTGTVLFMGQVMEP

Substance: wild type plasminogen activator inhibitor-1 (recombinant, baculovirus system) (from UniProt P05121 24-402) (natural protein)
- second-order rate constant of inhibition [1]: 2.11e+07 M⁻¹ s⁻¹
- second-order rate constant of inhibition [2]: 720 M⁻¹ s⁻¹
- second-order rate constant of inhibition [3]: 31000 M⁻¹ s⁻¹
